Measurements: PMC7395093
Changes are numbered by the printed parent chain.

B1: N-terminally V5 epitope-tagged WT (full-length) [mouse] / C-terminal GFP-tagged Atg16L1 WT (full-length) [mouse] (parent)
chain 1: MTSEMESSLEVSFSSSCAVSGASGCLPPARSRIFKIIVIGDSNVGKTCLTYRFCAGRFPDRTEATIGVDFRERAVDIDGERIKIQLWDTAGQERFRKSMVQHYYRNVHAVVFVYDMTNMASFHSLPAWIEECKQHLLANDIPRILVGNKCDLRSAIQVPTDLAQKFADTHSMPLFETSAKNPNDNDHVEAIFMTLAHKLKSHKPLMLSQLPDNRISLKPETKPAVTCWC
chain 2: MSSGLRAADFPRWKRHIAEELRRRDRLQRQAFEEIILQYTKLLEKSDLHSVLTQKLQAEKHDMPNRHEISPGHDGAWNDSQLQEMAQLRIKHQEELTELHKKRGELAQLVIDLNNQMQQKDKEIQMNEAKISEYLQTISDLETNCLDLRTKLQDLEVANQTLKDEYDALQITFTALEEKLRKTTEENQELVTRWMAEKAQEANRLNAENEKDSRRRQARLQKELAEAAKEPLPVEQDDDIEVIVDETSDHTEETSPVRAVSRAATKRLSQPAGGLLDSITNIFGRRSVSSIPVPQDIMDTHPASGKDVRVPTTASYVFDAHDGEVNAVQFSPGSRLLATGGMDRRVKLWEAFGDKCEFKGSLSGSNAGITSIEFDSAGAYLLAASNDFASRIWTVDDYRLRHTLTGHSGKVLSAKFLLDNARIVSGSHDRTLKLWDLRSKVCIKTVFAGSSCNDIVCTEQCVMSGHFDKKIRFWDIRSESVVREMELLGKITALDLNPERTELLSCSRDDLLKVIDLRTNAVKQTFSAPGFKCGSDWTRVVFSPDGSYVAAGSAEGSLYVWSVLTGKVEKVLSKQHSSSINAVAWAPSGLHVVSVDKGSRAVLWAQP
B2: C-terminal GFP-tagged Atg16L1 WT (full-length) [mouse] / N-terminally V5 epitope-tagged (full-length) [mouse] (parent)
chain 1: B1 chain 1 with Q92L
chain 2: B1 chain 2

Variants of: B1
Assay: GFP co-immunoprecipitation, western blot band quantification
Details: with C-terminal GFP-tagged Atg16L1 WT (full-length) [mouse]; Overexpression was done in HEK293 cells; read off a plot

With chain 1 T47N the response was 0.6 a.u.

Variants of: B2
Assay: as above
Details: with N-terminally V5 epitope-tagged Rab33B Q92L (full-length) [mouse]; Overexpression was done in HEK293 cells; read off a plot

Point of comparison: chain 2 K198A, response 0.13 a.u.. Against it:
- chain 2 N206K — lower, 0.12 a.u.
- chain 2 A202W — lower, 0.06 a.u.

Same assay, conditions: with C-terminal GFP-tagged Atg16L1 WT (full-length) [mouse]; Overexpression was done in HEK293 cells; read off a plot

Point of comparison: chain 1 F70E, response 0.32 a.u.. Against it:
- chain 1 F70A — lower, 0.04 a.u.
